Biological target: human lactate dehydrogenase C (LDHC), recombinant wild type with C-terminal His6-tag (human) (UniProt P07864)

Sequence of human lactate dehydrogenase C (LDHC), recombinant wild type with C-terminal His6-tag (P07864 whole entry): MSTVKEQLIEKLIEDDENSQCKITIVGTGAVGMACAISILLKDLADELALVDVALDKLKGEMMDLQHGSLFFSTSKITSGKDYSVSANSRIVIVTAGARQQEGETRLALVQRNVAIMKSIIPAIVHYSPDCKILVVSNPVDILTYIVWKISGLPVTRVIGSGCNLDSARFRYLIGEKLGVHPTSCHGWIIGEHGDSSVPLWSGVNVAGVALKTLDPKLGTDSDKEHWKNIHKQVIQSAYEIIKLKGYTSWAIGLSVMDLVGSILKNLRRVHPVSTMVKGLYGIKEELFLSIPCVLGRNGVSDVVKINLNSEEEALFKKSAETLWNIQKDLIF

human lactate dehydrogenase C (LDHC), recombinant wild type with C-terminal His6-tag (from UniProt P07864 1-332) (enzyme)
stoichiometry N: 4

From paper PMC9136605
